What was measured:
[1] = SPR membrane binding to POPC/POPS/PI(3,4,5)P3 vesicles; conditions: POPC/POPS/PI(3,4,5)P3 (or PIP3) (77:20:3), 1 μM Smad2
Protocol: Figure 1 Membrane-binding properties of Smad2 FL protein and MH2 domain determined by SPR analysis.A, PtdInsP selectivity of Smad2-FL determined using POPC/POPS/PtdInsP (77:20:3 in mole ratio) LUVs coated on the L1 sensor chip. The protein concentration was 100 nM. PIP3 indicates PI(3,4,5)P3. B, determination of Kd for binding of Smad2 FL to different LUVs. The protein concentration was varied from 0 to 500 nM. C, PI(4,5)P2 concentration dependence of membrane binding of Smad2-FL determined using POPC/POPS/PI(4,5)P2 (77-x:20:x, x = 0–5 mol%) LUVs. The protein concentration was 100 nM. D, PtdInsP selectivity of the Smad2 MH2 domain determined using POPC/POPS/PtdInsP (77:20:3 in mole ratio) LUVs. […] RUmax values determined for different vesicles at 1 μM Smad2 were: 280 ± 20 for POPC/POPS/PI(4,5)P2 (77:20:3), 370 ± 10 for POPC/POPS/PI(3,4)P2 (77:20:3), 400 ± 15 for POPC/POPS/PI(3,4,5)P3 (or PIP3) (77:20:3), 400 ± 20 for POPC/POPS/PI(3)P (77:20:3), and 380 ± 20 for POPC/POPS (80:20). […]
All SPR measurements were performed at 23 °C in 20 mM Tris, pH 7.4, containing 0.16 M NaCl using a lipid-coated L1 chip in the BIACORE X-100 system (GE Healthcare) as described previously ([19], [38]). […] Sensorgrams were collected for both membrane association and dissociation but the only the association phases were further analyzed because the dissociation phases were often too slow for analysis. […]

SPR PtdInsP selectivity = type: binding; conditions: RU/RUmax, 100 nM protein
Description: It has been generally thought that Smad2 and Smad3 are targeted to the activated TGF-β signaling complex by direct interaction with TβRI ([1], [2]) or via SARA ([7]). However, it has been shown that many cytosolic proteins that are targeted to membrane proteins or membrane-anchored signaling complexes have affinity for membrane lipids ([14]), phosphoinositides (PtdInsPs) in particular, and that their membrane recruitment is mediated by coincident lipid–protein and protein–protein interactions ([15], [16]). […] We thus measured the binding of bacterially expressed Smad2 to large unilamellar vesicles (LUVs) containing various lipids by surface plasmon resonance (SPR) analysis ([19], [20]). Lipid selectivity determined by SPR analysis is typically reported as the relative resonance unit (RU) values for different lipids at a given protein concentration ([21], [22]). […] We thus estimated RUmax for different lipid species by employing the highest protein concentration experimentally feasible (e.g., 1 μM) and determined RU/RUmax for different lipids at the protein concentration that allows robust comparison (e.g., 100 nM). Once the lipid selectivity has been determined by this semiquantitative approach, we then rigorously determined and compared Kd values for selected lipids for more accurate quantitative determination of lipid selectivity. […]

B1: Smad2 WT: bacterially expressed full-length Smad2 wild-type (protein)
chain: MSSILPFTPPVVKRLLGWKKSAGGSGGAGGGEQNGQEEKWCEKAVKSLVKKLKKTGRLDELEKAITTQNCNTKCVTIPSTCSEIWGLSTANTVDQWDTTGLYSFSEQTRSLDGRLQVSHRKGLPHVIYCRLWRWPDLHSHHELKAIENCEYAFNLKKDEVCVNPYHYQRVETPVLPPVLVPRHTEILTELPPLDDYTHSIPENTNFPAGIEPQSNYIPETPPPGYISEDGETSDQQLNQSMDTGSPAELSPTTLSPVNHSLDLQPVTYSEPAFWCSIAYYELNQRVGETFHASQPSLTVDGFTDPSNSERFCLGLLSNVNRNATVEMTRRHIGRGVRLYYIGGEVFAECLSDSAIFVQSPNCNQRYGWHPATVCKIPPGCNLKIFNNQEFAALLAQSVNQGFEAVYQLTRMCTIRMSFVKGWGAEYRRQTVTSTPCWIELHLNGPLQWLDKVLTQMGSPSVRCSSMS
modifications: left off: His6, N-terminal, state not stated
notes: bacterially expressed full-length Smad2 wild-type
Q: Which RUmax [1] does the source give for B1 here?
A: 400 ± 15

Q: What about the PtdInsP selectivity (SPR PtdInsP selectivity) of the same molecule?
A: significant degree of selectivity for POPC/POPS/PI(4,5)P2 (77:20:3) over other PtdInsP-containing vesicles

From publication PMC8567202, “Phosphoinositide-binding activity of Smad2 is essential for its function in TGF-β signaling” (The Journal of Biological Chemistry, 2021)
